Assay results reported in patent publication US20140065163A1.

B1: MSB0010603 4K21 (4K21 hVH S56V-T62S hVL N28I-H34S-N53R-H93Y) (antibody, V domains shown)
VH: EVQLVESGGGLVQPGGSLRLSCAASGFAFSAYDMSWVRQAPGKRLELVAYISSGGSVFYYPDSVKGRFTISRDNAKNSLYLQMNSLRAEDTAVYYCTRHLGFDYWGQGTLVTVSS
VL: DIVMTQSPLSLPVTPGEPASISCRSSQSLVNSIGNTYLSWYLQKPGQSPQLLIYKVSRRFSGVPDRFSGSGSGTDFTLKISRVEAEDVGVYYCSQSTYVPPTFGQGTKVEIK
B2: MSB0010600 4K21 (4K21 hVH S55R-T62S hVL S27eY-N28I-H34S-N53R-H93Y) (antibody, V domains shown)
VH: EVQLVESGGGLVQPGGSLRLSCAASGFAFSAYDMSWVRQAPGKRLELVAYISSGGRSFYYPDSVKGRFTISRDNAKNSLYLQMNSLRAEDTAVYYCTRHLGFDYWGQGTLVTVSS
VL: DIVMTQSPLSLPVTPGEPASISCRSSQSLVNYIGNTYLSWYLQKPGQSPQLLIYKVSRRFSGVPDRFSGSGSGTDFTLKISRVEAEDVGVYYCSQSTYVPPTFGQGTKVEIK
B3: MSB0010595 4K21 (4K21 hVH S56V-T62S hVL S27eY-N28I-H34S-N53R-H93Y) (antibody, V domains shown)
VH: EVQLVESGGGLVQPGGSLRLSCAASGFAFSAYDMSWVRQAPGKRLELVAYISSGGSVFYYPDSVKGRFTISRDNAKNSLYLQMNSLRAEDTAVYYCTRHLGFDYWGQGTLVTVSS
VL: DIVMTQSPLSLPVTPGEPASISCRSSQSLVNYIGNTYLSWYLQKPGQSPQLLIYKVSRRFSGVPDRFSGSGSGTDFTLKISRVEAEDVGVYYCSQSTYVPPTFGQGTKVEIK
B4: MSB0010599 4K21 (4K21 hVH S55R-T62S hVL N28I-H34S-N53R-H93Y) (antibody, V domains shown)
VH: EVQLVESGGGLVQPGGSLRLSCAASGFAFSAYDMSWVRQAPGKRLELVAYISSGGRSFYYPDSVKGRFTISRDNAKNSLYLQMNSLRAEDTAVYYCTRHLGFDYWGQGTLVTVSS
VL: DIVMTQSPLSLPVTPGEPASISCRSSQSLVNSIGNTYLSWYLQKPGQSPQLLIYKVSRRFSGVPDRFSGSGSGTDFTLKISRVEAEDVGVYYCSQSTYVPPTFGQGTKVEIK
B5: MSB0010601 4K21 (4K21 hVH S55K-T62S hVL N28I-H34S-N53R-H93Y) (antibody, V domains shown)
VH: EVQLVESGGGLVQPGGSLRLSCAASGFAFSAYDMSWVRQAPGKRLELVAYISSGGKSFYYPDSVKGRFTISRDNAKNSLYLQMNSLRAEDTAVYYCTRHLGFDYWGQGTLVTVSS
VL: DIVMTQSPLSLPVTPGEPASISCRSSQSLVNSIGNTYLSWYLQKPGQSPQLLIYKVSRRFSGVPDRFSGSGSGTDFTLKISRVEAEDVGVYYCSQSTYVPPTFGQGTKVEIK
B6: MSB0010602 4K21 (4K21 hVH S55K-T62S hVL S27eY-N28I-H34S-N53R-H93Y) (antibody, V domains shown)
VH: EVQLVESGGGLVQPGGSLRLSCAASGFAFSAYDMSWVRQAPGKRLELVAYISSGGKSFYYPDSVKGRFTISRDNAKNSLYLQMNSLRAEDTAVYYCTRHLGFDYWGQGTLVTVSS
VL: DIVMTQSPLSLPVTPGEPASISCRSSQSLVNYIGNTYLSWYLQKPGQSPQLLIYKVSRRFSGVPDRFSGSGSGTDFTLKISRVEAEDVGVYYCSQSTYVPPTFGQGTKVEIK

These binders were tested against recombinant marmoset GM-CSF (Callithrix jacchus) (Callithrix jacchus) (assay: cell-based or functional assay).
Sequence of recombinant marmoset GM-CSF (Callithrix jacchus) (Callithrix jacchus) (chain, as listed by the source limits assumed, form in doubt): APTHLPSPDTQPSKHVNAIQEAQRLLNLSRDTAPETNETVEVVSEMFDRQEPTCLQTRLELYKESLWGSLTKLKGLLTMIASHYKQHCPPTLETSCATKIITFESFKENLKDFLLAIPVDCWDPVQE

Compared with B1, B2 is 2.9-fold higher in IC50, inhibition of marmoset GM-CSF induced TF-1 proliferation (1.9 nM): 0.7 nM for the first, 2 nM for the second.

First: B3
Second: B4
The IC50, inhibition of marmoset GM-CSF induced TF-1 proliferation (1.9 nM) of the first is 1.7-fold higher: 1.5 nM for the first, 0.9 nM for the second.

Compared with B5, B6 is 1.9-fold higher in IC50, inhibition of marmoset GM-CSF induced TF-1 proliferation (1.9 nM): 0.7 nM for the first, 1.3 nM for the second.
